{"source": "paper doi:10.1101/2024.12.10.627806", "key": {"[1]": {"target": "head-tail joining protein (80α gp50) (Staphylococcus aureus bacteriophage 80α)", "test": "cryo-EM structure; focused reconstruction of the neck of purified SaPI1 virions with C6 symmetry, 3.1 Å; AlphaFold2 models fitted and refined in ISOLDE; virions in 20 mM Tris-HCl pH 7.8, 50 mM NaCl, 4 mM CaCl2, 1 mM MgSO4, treated with Benzonase"}, "[2]": {"target": "head-to-tail connector protein (80α gp49) (Staphylococcus aureus bacteriophage 80α)", "test": "cryo-EM structure; focused reconstruction of the neck of purified SaPI1 virions with C6 symmetry, 3.1 Å; AlphaFold2 models fitted and refined in ISOLDE; virions in 20 mM Tris-HCl pH 7.8, 50 mM NaCl, 4 mM CaCl2, 1 mM MgSO4, treated with Benzonase"}, "[3]": {"target": "major tail protein (80α gp53) (Staphylococcus aureus bacteriophage 80α)", "test": "cryo-EM structure; focused reconstruction of the neck of purified SaPI1 virions with C6 symmetry, 3.1 Å; AlphaFold2 models fitted and refined in ISOLDE; virions in 20 mM Tris-HCl pH 7.8, 50 mM NaCl, 4 mM CaCl2, 1 mM MgSO4, treated with Benzonase"}, "[4]": {"target": "portal protein (80α gene product 42) (Staphylococcus aureus bacteriophage 80α)", "test": "cryo-EM structure; focused reconstruction of the neck of purified SaPI1 virions with C6 symmetry, 3.1 Å; AlphaFold2 models fitted and refined in ISOLDE; virions in 20 mM Tris-HCl pH 7.8, 50 mM NaCl, 4 mM CaCl2, 1 mM MgSO4, treated with Benzonase"}, "[5]": {"target": "tail terminator protein (80α gp52) (Staphylococcus aureus bacteriophage 80α)", "test": "cryo-EM structure; focused reconstruction of the neck of purified SaPI1 virions with C6 symmetry, 3.1 Å; AlphaFold2 models fitted and refined in ISOLDE; virions in 20 mM Tris-HCl pH 7.8, 50 mM NaCl, 4 mM CaCl2, 1 mM MgSO4, treated with Benzonase"}, "[6]": {"target": "tape measure protein (80α gp56) (Staphylococcus aureus bacteriophage 80α)", "test": "cryo-EM structure; asymmetric (C1) reconstruction of the neck of purified SaPI1 virions after symmetry expansion and masked classification on the tail interior, 3.4 Å (3.54 Å in the methods); AlphaFold2/AlphaFold3 models fitted"}}}
{"substance": "head-tail joining protein (80α gp50) (natural protein)", "values": [{"measurement": "stoichiometry N", "setting": "[1]", "result": 6}]}
{"substance": "head-to-tail connector protein (80α gp49) (natural protein)", "values": [{"measurement": "stoichiometry N", "setting": "[2]", "result": 12}]}
{"substance": "major tail protein (80α gp53) (natural protein)", "values": [{"measurement": "stoichiometry N", "setting": "[3]", "result": 6}]}
{"substance": "portal protein (80α gene product 42) (natural protein)", "values": [{"measurement": "stoichiometry N", "setting": "[4]", "result": 12}]}
{"substance": "tail terminator protein (80α gp52) (natural protein)", "values": [{"measurement": "stoichiometry N", "setting": "[5]", "result": 6}]}
{"substance": "tape measure protein (80α gp56) (natural protein)", "values": [{"measurement": "stoichiometry N", "setting": "[6]", "result": 3}]}
